From the DeepSol protein solubility set

Assay: soluble on expression in E. coli; label from the status in PepcDB or PDB records

Row | Sequence | soluble on expression in E. coli
1 | MGSSHHHHHHSSGRENLYFQGMQCNTSIEDGLDGGDITFPSYSPEAEAQNRFLPRSEFPSVRQLVISKQKSRRRREENVFVGKMEDVLVKWRPPASSHRGAIEAINGTHPYQLSTAQFNSRRSDPFGSTKRDESVRSIVESFTDWWKRNSKMFFRDEEEGVRTEHSASQDDQELQLFEEDLFSFHLSPNDMSTRNSEHQVQTPVLFPYEAPTRTKQNPAERKVIEIGDGEELSIYRDVYSNPIPVSYLDTLNLNHSMSVRQTQQQQQQRQQQQYVDSSSAFQCCTDSNWARIFFCHHD | soluble
2 | MGHHHHHHHSSENLYFQGHMRKIRVGLIFGGKSAEHEVSLQSARNILDALDPQRFEPVLIGIDKQGQWHVNDPDSFLLHADDPARIALHRSGRGVALLPGAQQQQLRPIQPEQALAQIDVVFPIVHGTLGEDGSLQGLLRMANLPFVGSGVLGSAVAMDKDMAKRVLRDARLAVAPFVCFDRHTAAHADVDTLIAQLGLPLFVKPANQGSSVGVSQVRTADAFAAALALALAYDHKVLVEAAVAGREIECAVLGNAVPHASVCGEVVVHDAFYSYATKYISEHGAEIVIPADIDAQTQQRIQQIAVQAYQALGCAGMARVDVFLCADGRIVINEVNTLPGFTRISVYPKLWQASGLDYRGLITRLIELALERHTDDQLLRSAVELH | soluble
3 | MGSDKIHHHHHHADSPDAFVPPTRLTRIAFDRRSAAFGQLDFLLGEIGRRMQERMEVVRLTPQRALDIGCGHGQGLAGLRARFPDAQIAGLDISGVMLAEAGQRDPQRRPGWVGRLLGKRPLFDLVQGDLATLPFAPGSFDLLWSNLALHWHPEPHRVFPEWHRVTRDDGLVMFSLFGPDTLRELRTAFEEVDTATHTLRFVDMHDIGDMLVHGGWSTPVMDMETLTVTYESPEMLLREVQAFGGLRAHPALRRAGLHGRRWHQAVCAALERLRNADGVIPLTFEIVYGHAWKLPPRGAQQVDELGRAVVPLDKIGRARPRR | not soluble
4 | MNQLLKTLRDFGLSSYEASAYVALVSSGETTAREVSRKAGIPRTKVYEVLNRLVEKGFAEVQPGSPAIFRAIEPAKIAARMQRDFNERLGKMLKAFEELKMDEKSESKLVWISRGRWAVENRLREFLRENDKVMVFCITENFASVLSEVRGEHRVLLYQKFRVPENIREFRVLDLGRIKKAKDGFVARFAEIIEGTEAGKPEILIISEGSSILALSHGEEYLALSIHLPLIVALQKRMFDTLYESYC | not soluble
5 | MGSDKIHHHHHHMFKLIIVEDEHLIRKWLEIAVDYSALGIQVVGTASHGQEGMKLIQEKEPHIVLTDITMPIMDAFMMFEATRTLSYEKVILSGYNDFQNAKKAMQYGAVDFLSKPIDTKELTECLQKIVLRLRVSTRQETPFLEEYQTLLTSIQQIDTQNQIIQQILEFVHQHYCMHFTISSIAENLGYSESYLYKVIKEDFPMTLNEYILRYRLKQAIDKMAESPNSPLSDISEQIGFSDYKYFAKVFKKYLHISPKELKLMDKNH | not soluble
6 | MVKRNKVIKQQSCPLIDTINVISRKWLLLVLNTIGNEGKLGFNSILNSIDDISPKALSDVLKTMEEMGLVKKVIVKSSPPRVEYSLTYEGKKLRKAVIPLFKWAAEHTGHYECPILQSNKLNKEEYS | soluble
7 | MGGEGPGSDDIVKKMAQLMMQGAVMLDKTCPADGLPLFKLKTGDVVCPVHGKVVIVASDEEARDVEVEEIIREVRYRAARNVMKGLEEDNVDTVSKWLGVLETAERILAIRRGSRQGQGSVRGEGRESK | not soluble
8 | MNMIPKVAMFGTGYVGLVSGVCIADFGINVICVDVDKEKIDGLNNGKIPIYEPGLDVFLERNIKAGRIQFTTDAKMAIEESNVLFIAVGTPPKENGEADMQYVYAVAETIGQYMNGYKVIVDKSTVPVGTGQVVKKIIADKLKERGVEYSFDVVSNPEFLREGKALYDFTHPDRVVIGVESEEVAEIMKKVYRPLYINETPFVITNIETAEMIKYASNAFLATKITFINEIANLCEKVGANVQQVAMAMGRDGRIGPKFLHAGPGFGGSCFPKDTKALVQIAEKHGVQMSVVNAVIEANERQKKMVAEKLEKFAGDLKGKTIGILGLAFKPETDDVREAPALTIIADLIERGASIRAYDPQAMEEAKKALRKYADNITYCKHAYDTAESVDALVIVTEWHEFRNMDLTLLKKIMRGNIFYDARNIYSRKDIEEKGFVFIGTGV | not soluble
9 | MEEWVREQYGMRVERLERSGRHAAFWHRQERFLLVPADGQSEAEMEERQQMSRYLRAKGVDGVGELVKTTSGTYIASYNGQPLALVRAPLPASRFRSLGRELAVMHECGRTCPWPIVACRRIGQWRELWAKRIDQMEAFWSSKLASGPSSLFDRLFIESFPYYLGLAENAVQYVADTEIDEEPGRIDYAAFCHERLPEAKWVGGGEAKLPTDWVYDHCARDLAEWVRHLYEKSGLGCQRAVRQFFQEYEHAAPLSPFAWRLVYARLLFPLSYFECVEAYYIAVDESERTRREGELRRLLDRSHEYERFLASFAKIAGISNRIRLPAVEWLPPA | not soluble
10 | SKREMPSMYPQAKGILSALKEKGIEMAIASRSPTSDIANTFLDKLNIKPMFVAKEIYSSWSHKTEHFQKIHTRTGVPFTAMLFFDDEDRNIKSVSKMGVTSILVGDGVTLGAFRQGLTEFTQN | not soluble
11 | AHHHHHHASAKWVCKICGYIYDEDAGDPDNGISPGTKFEELPDDWVCPICGAPKSEFEKLEDGSACYSSSPEVIVLREYLLIKIHEDGVIKIPQELAYEVGLVKGAYFLVEIDTDIKELHVERVALPGKKLVEIELVVEDKPGVLAKIAGILGKNGINILFNEAEELESLGLSAIVAVVDVSGAKISLKDLESTLKEINEVKEVKIVEIE | soluble
12 | MGSDKIHHHHHHMKPDLSSHLVLGERPDGRTLITARWVLAWRDGGHALIPDGEIVVDRNEVLYAGPRFEGDVARRIDFGTALVSPGLIDLDALSDLDTYLLVHDNQPGWAKGRIWPRSYVESGPYEMYSAEELAFQKRFAFGLLLLNGITTAAPIASLYYRQWAETVAEFEAAADAAGDLGLRVFLSPAYRSGGMILEGPGRIEPAFDEPRGLQGLADAIDFIERNHGRHNGLVNGMLAPDRIETCTLHLLQRTMAAARDLDCRVRIHMAQGNLELETMRRLHGVSAPQWLADHGLMSERLIAPHGTYASPQDLQLYAQHGVSIAHSPLVSARMGSILNSFAACRSLGINIGMATDTAPPDMLMNLLVGLIACRIGEKTSDAVFSKDLFDAATLGGAKALGRRDLGRLAAGAKADIAVFRLDDVHMTPSVDPVTTLVVGGSGKVTQAVFVDGRLSMLDGKVAGIDMIAAREQAQQQYDGLIAKYPDRSWRHPPVGKIFSPSYPVWKIQ | not soluble
13 | MKRLRNKMTTEELAECLGVAKQTVNRWIREKGWKTEKFPGVKGGRARLILVDTQVCEFIQNTPAFHNTPMLMEAEERIAEYAPGARAPAYRQIINAIDNMTDIEQEKVAQFLSREGIRNFLARLDIDESA | not soluble
14 | MRRKSVLYLEVADQIKEDILSGKYPVGTFLPTETELEELFNVSKITIRRAIEMLATEEFVEKKSGRGTTVLSNRPYNKLSKAGTFTEFLNESGQKVTKKVLQVENLTLSKEMPAYQFLGEEVVHLSRLYLIDEQPYIYFNYYLPAAMKDVSLTEYKEESLYRLMDRHAIEIYKFEDRFEVATLTEAEQKMLQTTETTGLKRIRRSLSPTGRCVEYSEAIYNTKIHPYVIEYEA | not soluble
15 | MVDKDIHSEHWYHGLLPREDIKAMLRKNGDFLVRSTEPKAGEPRQYVLSAMQSEELEDAGVKHYVMRLNSSNQIFLEAKGFETIASLVNYYMSSKEPIKKLTVLKTPILKQPWEIEHSQVELTKKLGEGAFGEVWKGKLTLKNGNVENCAIKTAKLESLNKEQIKEIMREARLMRNLDHPNVVKFYGVGASQEPLYVIMELADCGALDSYLQKNPNLVPDKKMEMIYQAACGISYMHEKKLLHRDIAARNCLYGGGQVKIADFGLSREGISYVMDLTKKVPIRWLAPETLKAGIYSPKTDVFAFGIMAWEITENGKEPYPDMRVADVVGKVRNGYRMRFDPVFVDFRFGDYVTKHCWAENPADRVSMADVLRYLQTTFGMKPVVLSILSSNRSTEEEMKTMKPPMFSVKRNNKKKPK | not soluble
16 | AHHHHHHGSRYVKLPKENTYEFLERLKDWGKLYAPVKISDKFYDFREIDDVRKIEFHYNRTIMPPKKFFFKPREKLFEFDISKPEYREVIEEVEPFIIFGVHACDIYGLKILDTVYLDEFPDKYYKVRREKGIIIGISCMPDEYCFCNLRETDFADDGFDLFFHELPDGWLVRVGTPTGHRLVDKNIKLFEEVTDKDICAFRDFEKRRQQAFKYHEDWGNLRYLLELEMEHPMWDEEADKCLACGICNTTCPTCRCYEVQDIVNLDGVTGYRERRWDSCQFRSHGLVAGGHNFRPTKKDRFRNRYLCKNAYNEKLGLSYCVGCGRCTAFCPANISFVGNLRRILGLEENKCPPTVSEEIPKRGFAYSSNIRGDGV | not soluble
17 | MRANIWQILSVSVLFFFGTAIGQAQSRNRTYEAYVKQYADEAIRQMSRYNIPASITIAQALVETGAGASTLASVHNNHFGIKCHKSWTGKRTYRTDDAPNECFRSYSAARESYEDHSRFLLQPRYRPLFKLDREDYRGWATGLQRCGYATNRGYANLLIKMVELYELYALDREKYPSWFHKSYPGSNKKSHQTTKQKQSGLKHEAYFSYGLLYIIAKQGDTFDSLAEEFDMRASKLAKYNDAPVDFPIEKGDVIYLEKKHACSISKHTQHVVRVGDSMHSISQRYGIRMKNLYKLNDKDGEYIPQEGDILRLR | not soluble
18 | MEMKGINNIRIDDRLIHGQVATMWSNKLGVTRLMVVNDNVAKNDLQKQVLRMAVPAGISSSIITEETAISNIKNGKYEGQNVLMIVKSPVDLLPFIENDLEIKRINVGNMSNRNNTTVLRPNISVTDEERSAFEKLLSRDIEITTIMTPDDKKTFLKDIL | not soluble
19 | MIMKANIFNIQRFSIHDGPGIRTVVFFKGCPLRCPWCSNPESQHRPPQILWDKKKCFYGHLCEVKCPAGCLNFENNNLVFSADNCTGCKSCITQCPGKALTFVGNMMELDEVMEEVLKDMDFYQESKGGVTLSGGEVLVQPDFAAALLKKCKENGIHTALETTAFSTPLVFSKVLANTDLLLLDIKHYNDREHIKYTGVSNQSILENLDFAVTMKVPVVARIPVIPSVNNTIQDAKEFVKLLKEHRVDTVNLLPFHQFGEKKYEELQVPYQLKDVKALRPEDMTEYYNVFKNAGLNVSM | not soluble
20 | MKRAPFLCKQSPDRTLEVVILAGSLAWETSRVWRKDPDREDDVPPMVLGPNELADLSNLTIIRPDTLYVRVLRTGDISEEDLLKIAVKLAHAGVQMARLMSPDGELLENWTGQLERLRQERPSDILPDHFRLDEEALWFDKLTERRDGESDVQPQRICSPLRVTAITCDSHDGSYGRLLEWHTTTGQLRRWAMPMAMLSGNGEELRRILLENGLTNISTRPALRSLLCEYISRSLPGRRVTCVEKTGWHNGVYVLPDEVIGPDGDNVILQGSHYLTGGFAQAGTLAEWQEQVAALCAGNSRLVFAVCCALAAPLLRLTGTGGGGFHLRGESTDGKTTVMKVAASVCGGTDYWHSWRATGNALEGIASRHNDALLPLDELREVDPREAGMIAYMLANGQGKGRARTDGEVRNRRHWTLLLEHHHHHH | not soluble
21 | MGSDKIHHHHHHMIEDNMKLKTGIPALDRILGGGFEKGCNIALVGGMDNDHILLTHQLTNAFLSSGKKVLLVELRQDPASLIKWLSQYNINYEEYLEDGDLKILDGFSNLYSPASISGPDVLPNPLDLGITTAIIRDNVSKEKYDILVFDDITSLYALQTDYKAYVRVIVRLTNSIRKLGASSLVAINSDVLSIQDLSMILMPFEYLIEIREGMIRFKRSFSFINVPGVPYVKTNKGIIPIEDVLKDAVSIRDSLVLTSDGVLKLGEGRVQLIGETSERSLIEFVYRFLGPEKGREFLYGWGRHEVEHLEIPKIESVEEIKEILEEAFEVTRSTGGGILRIVEATKDIIIVEGKNLFPHIRNFPYPAHVHYAGYMAKLLEKATGERWEGEEIKCESQTNDKCIFILRRV | not soluble
